Assay results as given in patent US20200292536A1.

Columns and labels:
[1] = biological target: BCL2 peptide Ac-…-amide (amino acids 41-54 of human BCL2 with linkers) (human); experiment: imaging mass cytometry; peptide 2.50E-08 M in core
[2] = biological target: BCL2 peptide Ac-…-amide (amino acids 41-54 of human BCL2 with linkers) (human); experiment: imaging mass cytometry; peptide 2.50E-07 M in core
[3] = biological target: BCL2 peptide Ac-…-amide (amino acids 41-54 of human BCL2 with linkers) (human); experiment: imaging mass cytometry; peptide 2.50E-08 M in core; Ab 1 ug/ml
[4] = biological target: BCL2 peptide Ac-…-amide (amino acids 41-54 of human BCL2 with linkers) (human); experiment: imaging mass cytometry; peptide 2.50E-08 M in core (second core); Ab 5 ug/ml
[5] = biological target: BCL2 peptide Ac-…-amide (amino acids 41-54 of human BCL2 with linkers) (human); experiment: imaging mass cytometry; peptide 2.50E-06 M in core; Ab 10 ug/ml
[6] = biological target: BCL2 peptide Ac-…-amide (amino acids 41-54 of human BCL2 with linkers) (human); experiment: imaging mass cytometry; peptide 2.50E-04 M in core (second core); Ab 10 ug/ml
[7] = biological target: Bovine serum albumin (BSA; Ultra Pure) (bovine) (UniProt P02769); experiment: imaging mass cytometry; no peptide (background cores)
Sequence of UniProt P02769 (P02769 25-607 limits assumed): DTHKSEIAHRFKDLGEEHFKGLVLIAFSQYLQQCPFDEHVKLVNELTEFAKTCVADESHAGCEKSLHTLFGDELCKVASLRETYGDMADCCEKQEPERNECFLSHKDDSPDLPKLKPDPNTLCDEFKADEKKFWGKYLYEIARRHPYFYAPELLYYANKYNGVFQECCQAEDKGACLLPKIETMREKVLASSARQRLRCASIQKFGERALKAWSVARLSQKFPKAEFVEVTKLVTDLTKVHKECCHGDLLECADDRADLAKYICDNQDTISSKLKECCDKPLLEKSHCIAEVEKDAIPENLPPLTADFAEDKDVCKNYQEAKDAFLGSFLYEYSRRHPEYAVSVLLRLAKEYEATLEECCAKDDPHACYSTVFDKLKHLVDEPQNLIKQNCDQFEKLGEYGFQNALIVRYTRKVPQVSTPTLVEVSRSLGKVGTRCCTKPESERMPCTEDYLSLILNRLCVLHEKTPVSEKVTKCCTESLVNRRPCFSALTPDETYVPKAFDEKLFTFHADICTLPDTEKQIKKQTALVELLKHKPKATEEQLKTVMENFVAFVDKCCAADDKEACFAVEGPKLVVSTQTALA

[8] = biological target: BCL2 peptide Ac-…-amide (amino acids 41-54 of human BCL2 with linkers) (human); experiment: imaging mass cytometry; peptide 2.50E-04 M in core; Ab 10 ug/ml
[9] = biological target: Bovine serum albumin (BSA; Ultra Pure) (bovine) (UniProt P02769); experiment: imaging mass cytometry; no peptide (background core); Ab 5 ug/ml
[10] = biological target: BCL2 peptide Ac-…-amide (amino acids 41-54 of human BCL2 with linkers) (human); experiment: imaging mass cytometry; peptide 2.50E-07 M in core (second core); Ab 10 ug/ml
[11] = biological target: Bovine serum albumin (BSA; Ultra Pure) (bovine) (UniProt P02769); experiment: imaging mass cytometry; no peptide (second background core); Ab 5 ug/ml

Sequence of BCL2 peptide Ac-…-amide (amino acids 41-54 of human BCL2 with linkers) (human) (peptide, as listed by the source): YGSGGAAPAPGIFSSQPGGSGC

Average Ion count [1]: 1310 ion counts
Ion count above background [1]: 134 ion counts
Moles ^146Nd Ab detected per ROI [1]: 7.5e-20 mol
^146Nd Ab/peptide [1]: 3.33%
Average Ion count [2]: 1740 ion counts
Ion count above background [2]: 562 ion counts
Moles ^146Nd Ab detected per ROI [2]: 3.15e-19 mol
^146Nd Ab/peptide [2]: 1.4%
Integrated Ion counts (per 150 micron square ROI) [3]: 1450 ion counts
Integrated Ion counts (per 150 micron square ROI) [4]: 2070 ion counts
Integrated Ion counts (per 150 micron square ROI) [5]: 789000 ion counts
Integrated Ion counts (per 150 micron square ROI) [6]: 880000 ion counts
Average Ion count [7]: 1280 ion counts
Integrated Ion counts (per 150 micron square ROI) [8]: 87400 ion counts
Integrated Ion counts (per 150 micron square ROI) [9]: 1080 ion counts
Integrated Ion counts (per 150 micron square ROI) [10]: 1760 ion counts
Integrated Ion counts (per 150 micron square ROI) [11]: 2380 ion counts
Substance: Fluidigm EPR17509-^146Nd antibody
